From a protein production outcome set (Wang et al. 2014)

Assay: label from the status in PepcDB records

Sequence	protein production
MKVKKWVTQDFPMVEESATVRECLHRMRQYQTNECIVKDREGHFRGVVNKEDLLDLDLDSSVFNKVSLPDFFVHEEDNITHALLLFLEHQEPYLPVVDEEMRLKGAVSLHDFLEALIEALAMDVPGIRFSVLLEDKPGELRKVVDALALSNINILSVITTRSGDGKREVLIKVDAVDEGTLIKLFESLGIKIESIEKEEGF	not failed
MKVLKFGGTSVGDAERIRSVARLITSVKGRKIIVLSAMAGTTNSLVEIASHLVKRNVAQAKEVVQVLREKYHREINALYKRPDTLSAAKKAVDSLLDSLGHMCDVEGFTLFEEKRVLIL	failed
MKVQATFATLIALAAYFPAANAWKDCIIQRYKDGDVNNIYTANRNEEITIEEYKVFVNEACHPYPVILPDRSVLSGDFTSAYADDDESC	not failed
MKVQITNSRTEEILKVQANNENDEVSKATPGEVEESLRLIGDLKFFLATAPVNWQENQIIRRYYLNSGQGFVSCVFWNNLYYITGTDIVKCCLYRMQKFGREVVQKKKFEEGIFSDLRNLKCGIDATLEQPKSEFLSFLFRNMCLKTQKKQKVFFWFSVAHDKLFADALERDLKRESLNQPSTTKPVNEPALSFSYDSSSDKPLYDQLLQHLDSRRPSSTTKSDNSPPKLESENFKDNELVTVTNQPLLGVGLMDDDAPESPSQINDFIPQKLIIEPNTLELNGLTEETPHDLPKNTAKGRDEEDFPLDYFPVSVEYPTEENAFDPFPPQAFTPAAPSMPISYDNVNERDSMPVNSLLNRYPYQLSVAPTFPVPPSSSRQHFMTNRDFYSSNNNKEKLVSPSDPTSYMKYDEPVMDFDESRPNENCTNAKSHNSGQQTKQHQLYSNNFQQSYPNGMVPGYYPKMPYNPMGGDPLLDQAFYGADDFFFPPEGCDNNMLYPQTATSWNVLPPQAMQPAPTYVGRPYTPNYRSTPGSAMFPYMQSSNSMQWNTAVSPYSSRAPSTTAKNYPPSTFYSQNINQYPRRRTVGMKSSQGNVPTGNKQSVGKSAKISKPLHIKTSAYQKQYKINLETKARPSAGDEDSAHPDKNKEISMPTPDSNTLVVQSEEGGAHSLEVDTNRRSDKNLPDAT	failed
MKVSCCFGTCLKHLDPACVKTSRRIAILHSALPRQRPPPALECPAFSFGDSDMTDQRKGSDAEPTTHFGFKNVPESQKAEKVAEVFHSVAAKYDLMNDVLSGGMHRLWKRFTIELSGVRAGNRVLDIAGGTGDLTKRFSHLVGPTGQVVLADINESMLKVGRDRLLDLGVAGNVEFVQADAEKLPFPDNHFDCVTIAFGLRNVTHKEDALRSMLRVLKPGGRLLVLEFSKPTNALMSKVYDAYSFAFMPLAGKLITNDSESYRYLAESIRMHPNQETLKSMMVEAGFDRVTYHNMTAGIVALHRGIKP	failed
MKVSSKLLSITNHHEYLDLVTDGAKFRIYLLDENIIRIRGTFDDDFAPEESYALVKTAWADATDDLIGDERQRVTPIAVELTETADGYTVSNGRYTLEIHAEPFYFEIKDQNGVTVHKDLVKRSFVQDDLGRRFHYSAMGDHDKFYGFGEKSGKLNKFKRRMRMHNTDSLGWNAAKSDPLYKMIPFYIDFNTTTNIASGLYYNNTHDSVFDMDCEHSNYWLRYSYFQCDGGDLDVFFIGGPTIKQVVEHYTDLTGKSAMMPLPSLGYMGSTMFYTELDQDADQAILDFIDTCKKNGIPCDGFFLSSGYTSGKDGKRYVFNWNKKRFPDPQKFVAELKKRGALLAPNIKPGMLVTHPLADEFMEKDAYIKTPDGQGSQVDQYWGGDAHFVDFTNPHGRDAWEQKMTEALLSIGITSIWNDNNEYEINDTQAVVDAEGQKSTIGALKPIMPTMMAKAAKDAINRYDATVRPYLVNRAGFAGIQRYAQTWAGDNYTSWTNVKYNIPTILGMGLSGVANQGCDIGGFDGPLPEPELFVRWVQNGIFQPRFSIHSCNNDNTVTEPWTYPAYTKYIRAAIQLRYSLVPYLYSLLYEASTKGSPIMRPLVYEFQDDPQVAEESFEFMLGASLLVANVVDKGQTAKSVYLPAGVDWLDLKTSQYYTGGQTITIPVDLGSIPMFLKAGSIVPQSKGLMNLHNDVIDKLDVLIEPSRDAEFVVYEDDGVTNNYRQGETLETTIKTTATADGVVIDFSRVGQYQTQVKTMALAVCCPKIAPLSVDLADQSLPRYLNAAKFADAAEGWYFDGESRQVQIKYANPEVAGYAVKVNFSVKDLISI	failed
MKVSVIIPTYNERENLEELFSRIDNALQGLNYEIVVVDDDSPDRTWEKAQELSSKYPVKVIRRTKEKGLSSAVIRGFKEASGDVFVVMDADLQHPPEVIPKLIEAIKNGSDIAIGSRYVKGGKVENWPFYRKLISKGAIMVGRIALPKIRDIKDPVSGFFALRKEVVEGVELNPIGFKILMEILIKGKYSKVVEVPFTFGIRARGESKLKGKTIFEYLRHIYRLMKWEGEIDRIVKFSIVGLSGILVNEGFLWLFVNLGIPKEIAVIPAVELSILNNFFWNDIWTFKDIRRGSIFSRLLKFHIAALSGAVVNFIVYWILLFLGIHYLIANLVGIVLSFGVRYVINRHVTWAT	failed
MKVTFMNLEERKKLETKSIDELDLIGKKVCVDTCVVIDGRITELIERGKLKDATIIIPEAVVSELEYQANMGREIGYKGIEELRKLIEKASEHNIKVEYYGERPTREEIFLAKSGEIDAMIRKVAKETNSILLTSDWIQYNLAKAQGIEAYFLEAAEEEVELVLD	not failed
MKVTNLFKDKVDAISAHQSEFMNWMSPTLRDYWSDFLGKAQNSFLFSNVRDHNQPAVNEEVAPQPAPIVLQPEAQKLYDELSGKIGEVIHTGDWVHVSQERINQFGAVTEDMQWIHTDPERASVESPFKTTIAHGFLTLALLPKLTDSVDADKPLFPTAKLVVNLGLNQVRFPYPVKAGNNVRAVSTLTKVTPIKKGLEIEREIKVEIEGVRRPGAVVVSVIQLHFLEHHHHHH	not failed
MKVTSAEKHALLLPDNRTLTWYESGPSDGQPVLFCTGAGMSGLLSMDADLLTKLNIRLITPTRPGLGESTFDPKKTLKSFSSDVLFLLAYLNIKNISVIGSSQGAVFAMAICYYGKVDKLAIVAGQDQLDYPEIKKLLSSDVVNMQQQALFDPDGLKTWIIENITADWLMDFILNYSADVDLALYQENKFFPVYQACMKEAFKYGNKGYAQDLLITMQPWGFTPEMISTPTTLWYGLKDTSTVHSPDFGKLLSQRFPHAQRYVYDNEGGSLLWTKTSQILTNLIS	failed
MKVVVITGNLSRPSKTRAVADFMVDRVRASGNEASCWDLVDLHPHLGATVLPSSAAEIVKAALNDILASDVLVVGSPVYKASYTGLLKHLFDLVDMKALKGRYVIPFATGKASSHKPLVEASMEALFDFFEAQIHSRFIFALDEDFQNDALSENLRALVDRELDAARRAVSP	failed
MKVVVQIKDFDKVPQALRSVINLYNDIKDAEIEVVLHQSAIKALLKDSDTRSIIEDLIKKNILIVGCENSIRSQNLSHDQLIPGIKIVTSGVGEIVRKQSEGWIYLAL	not failed
MKVYLHFSPQFFANTYLIGNEITKEAVIIDPAKITEKMIHQIEKNEFNLKAVLLTHDLEHPYETGLNTILKIYSPKVYAGSCFSENVTINTLRGDGCIDVAGYSVRYFAIPAHSSYSYMFQIENMVFTGTSLSAGMIGQTSNMYAERTLRNILKTKLMCFEDNLIIMPFYGPPTSIGVERKYNASFFQDFEKKPFLEHHHHHH	not failed
MKWIDSHIHVDQYKDEEKSRLLKEVENSKEIKGLIAVSMNYQSCKETLSLAKKYPFIYPAIGFHPEQQIHKEECEQIYQLIEQNAEEIVAIGEVGLPYYLRKEDERIAADPYIAVLKKFIELASKYNLPIVLHAVYEDADIVCDLLEKYKVSRAHFHWFKGSDETMKRMMRNGYYISITPDVLHKEKIRKIVSYYPLEYMMVETDGPWEFQEDVITHPRMIREVLKEISSIKNISIDKVAETIYENTSRFYLK	failed
MKWLRSEMKTFAIHLPQFHTFPENDRWWGKGFTEWTNVKKAKPLYEGHSQPLIPINSHYYDLSNPEEMTRQHRLAAQYGIDGFVYYHYWFNGKKLMEKPVEDLLTNKEAKQQYCLCWANEPWTRAWDGKNKEILMPQTFGGQEDWLNHIRYLISFFKDERYLRIQGRPVFFVYSPKNIPNFDNMIEFWDSYLERCGEEKIYLIEYISSFNPKAFSDYSKAVFEFEPLYSAHYEISFLKQADRFIDKKMKRLDCLDYDYLWNRILNKQRKYGTRQIVRSAFTNFDNSPRKGTRAFITQGSSYTKFADYLNQLIHSNRQDYMDFTVINAWNEWGEGAILEPTESDQYGWLQAVKDAVQ	failed
MKWRSRQLSFSSAKWYGDVIWIFDPGIIGAQIDNEGDLKKCFIQTLFHSTGSRQSIRIWWREIMLSLILRIYLDKFLPWISLSIKEVGESSVINFSLWGCLHGTRFRRWYSPFQKLSALAITKKDVISSSWRCFNGMRCN	failed
MKWRYSPKTSNYCFIVGGFFLFLPILMYGWGHFRRPPRSENQQELFRGIVYQRLIESKPRPLIIHIVTIDLNTPGIKPFITPDIENLSKNVGVGKQAIIDNETKARTTSEFVAEFQVKLAINGSYFYPFKEVTPWHYYPHSGDTTKVLGQTISNGKIYANKKSSWYVLCFDNNNQAQIPGGEECPKNTIQGLAGDDVLVFQGKPKINIYANSSADKPYSRVVAAIDKTGKKLWLVLVDGKQPLYSEGFTKRELTQFIAKLGVYNAINLDGGGSTTLVVANPDKEGKPKILNAPTHTKILMRDRPVANHLGFYAD	failed
MKYADISHFSHPQHNLKFDYTEKPFKCDGCNEVGIGSRYRCSGDNHGSCDFDLHAHCALPSASITHPFYKKCTFQFVARPPGNERRYCNACEKDVSGFLYHCKACGFDLHPCCAMLPMVLDDGETNLFLYRKVSSSCHRCGKKGRSWSYRSLFLILFLFFHYYDTKD	failed
MKYIRKSISIFAVLALVFILSFGNVSAGTIYESKTKETVTSGVTLETITRFTDDGWQKINVLRVDLENPNVKVDTLIDSESIKKLTNVKNLAQSAGAVAAVNAGFFNWLKGESGKGYPDGPVIKSGEFLSVDSEYNRYNNSMATIAIDKDNNVYFDFWKTDITLHAPDGSTTRVFQYNKPSPFQYTDITIWTSAWDKYSLGVSQQYPDLVEVVVDNGTVVEIRQGLPAVEIPQNGYVIISRGANAQFLLQHFKVGDPVEISFSTVLDWQKIEMAVTGSAILVKDGQIPEKFSYEISGVHPRTAAGTSKSGKELILVTVDGRQAASKGMTQRELANLMLSLGAYNAINLDGGGSTSMVSRIPGTNDLKVVNTPSDGALRSISTAIGVFSVAPPSELAGMIIETQPNVFVNSSTTLTVKGYDKYFNPVSVDPNSINWSVSGIKGSFAGNVFRAESSGIGTITATVNGIKASTTIRALEAPNKLILSTTKLNLLKGSSYSFTVKGVDNNGYSSYINFADINWTVNGDIATIEKNKITAVKPGTGYIEAAFGDARAYCAVSVASESTYLVDDFEKKNGSFETVPANLPGSYELSSEVKKSGNYSGKLSYDFSYLEGTRAAYLVFPNGGIDLDGNTVEITMMVNNPQQNPNWLRAEVIDSGGQKHLVDFTRDLTWTGWGRVFASLRDIKSPAKLTKIYVVQVNPVPSSGCIYIDDLSLVKATFPEINESTIPKDVVLSDRDNKEAALNKDSIKISVFSGKSNPENMLQKLLNTKFYNKVKADGYMKSIQDISNINTNTHVDIGGTRLITLNTTDKSIRTSASGQWQWFFDKLNSHTGDNIFIFMKNSPDTFVDPLEAKLFKDILIEHKEKTGKNIWVFYGNSSETYYADNGIKYFGVAGLNIGGLTPDNAKNVKYIEITVNGKEVSYQYKSPLK	failed
MKYLAAYLLLVQGGNAAPSAADIKAVVESVGAEVDEARINELLSSLEGKGSLEEIIAEGQKKFATVPTGGASSAAAGAAGAAAGGDAAEEEKEEEAKEESDDDMGFGLFD	failed
